Measured values published in patent US20190282704A1.
Each block holds one binder with its values, some of them ahead of it.

Assays:
[1] = molecular target: wildtype feline IL-31 (Feline_IL31_wildtype) (feline)
[2] = molecular target: canine IL-31 (Canine_IL31) (canine); assay: SPR (Biacore), immobilised IL-31, 1:1 fit
[3] = molecular target: wildtype feline IL-31 (Feline_IL31_wildtype) (feline); assay: SPR (Biacore), immobilised IL-31, 1:1 fit

canine IL-31 (Canine_IL31) (canine), sequence (chain, as listed by the source limits assumed, form in doubt): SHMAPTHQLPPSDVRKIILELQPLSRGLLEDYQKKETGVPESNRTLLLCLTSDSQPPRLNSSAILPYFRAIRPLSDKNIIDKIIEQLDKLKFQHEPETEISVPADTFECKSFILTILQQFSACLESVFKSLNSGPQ
wildtype feline IL-31 (Feline_IL31_wildtype) (feline), sequence (chain, as listed by the source limits assumed, form in doubt): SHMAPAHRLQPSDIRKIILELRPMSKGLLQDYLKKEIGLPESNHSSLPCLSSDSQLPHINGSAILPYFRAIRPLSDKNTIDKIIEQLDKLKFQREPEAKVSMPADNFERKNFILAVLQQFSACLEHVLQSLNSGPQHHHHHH

IC50, inhibition of feline IL-31-induced STAT3 phosphorylation, canine DH82 cells [1]: > 100 µg/mL
IC50, inhibition of feline IL-31-induced STAT3 phosphorylation, feline FCWF4 cells [1]: > 100 µg/mL
B1: Feline 11E12 1.2 (antibody, V domains shown)
VH: QVLLVQSGAEVKKPGASVKIFCKASGYSFTYYDINWLRQAPEQGLEWMGWIFPGDGGTKYNETFKGRLTLTADTSTNTVYMELSSLRSADTAMYYCARGGTSVIRDAMDYWGQGALVTVSS
VL: EVVLTQSSAFLSRTLKEKATITCRASESVDNYGISFMHWYQQKPNQAPKLLVKRASNLESGAPSRFSGSGSGTDFTLTISSPEPEDAATYYCQQSNKDPLTFGQGT

IC50, inhibition of feline IL-31-induced STAT3 phosphorylation, canine DH82 cells [1]: 5.66 µg/mL
IC50, inhibition of feline IL-31-induced STAT3 phosphorylation, feline FCWF4 cells [1]: 4.38 µg/mL
Kd [2]: 7.02 nM
koff [2]: 0.000318 s⁻¹
kon [2]: 45200 M⁻¹ s⁻¹
Kd [3]: 0.75 nM
koff [3]: 0.000639 s⁻¹
kon [3]: 852000 M⁻¹ s⁻¹
B2: Feline 11E12 1.1 FW2 (antibody, V domains shown)
VH: B1 VH
VL: EIQMTQSPSSLSASPGDRVTITCRASESVDNYGISFMHWYQQKPGQPPKLLIYRASNLESGVPSRFSGSGSGTDFTLTISSLEPEDAATYYCQQSNKDPLTFGQGT

IC50, inhibition of feline IL-31-induced STAT3 phosphorylation, canine DH82 cells [1]: 1.57 µg/mL
IC50, inhibition of feline IL-31-induced STAT3 phosphorylation, feline FCWF4 cells [1]: 5.26 µg/mL
Kd [3]: 0.614 nM
koff [3]: 2.3e-05 s⁻¹
kon [3]: 37400 M⁻¹ s⁻¹
B3: ZTS-927 (antibody)
heavy: QVLLVQSGAEVRTPGASVKIFCKASGYSFTSYTIHWLRQAPAQGLEWMGNINPTSGYTENNQRFKDRLTLTADTSTNTAYMELSSLRSADTAMYYCARWGFKYDGEWSFDVWGAGTTVTVSSASTTAPSVFPLAPSCGTTSGATVALACLVLGYFPEPVTVSWNSGALTSGVHTFPAVLQASGLYSLSSMVTVPSSRWLSDTFTCNVAHPPSNTKVDKTVRKTDHPPGPKPCDCPKCPPPEMLGGPSIFIFPPKPKDTLSISRTPEVTCLVVDLGPDDSDVQITWFVDNTQVYTAKTSPREEQFNSTYRVVSVLPILHQDWLKGKEFKCKVNSKSLPSPIERTISKAKGQPHEPQVYVLPPAQEELSRNKVSVTCLIKSFHPPDIAVEWEITGQPEPENNYRTTPPQLDSDGTYFVYSKLSVDRSHWQRGNTYTCSVSHEALHSHHTQKSLTQSPGK
light: EIQMTQSPSSLSASPGDRVTITCRASQGISIWLSWYQQKPGNIPKVLINKASNLHIGVPSRFSGSGSGTDFTLTISSLEPEDAATYYCLQSQTYPLTFGGGTKLEIKRSDAQPSVFLFQPSLDELHTGSASIVCILNDFYPKEVNVKWKVDGVVQNKGIQESTTEQNSKDSTYSLSSTLTMSSTEYQSHEKFSCEVTHKSLASTLVKSFQRSECQRE

Kd [2]: 0.204 nM
koff [2]: 6.04e-06 s⁻¹
kon [2]: 29700 M⁻¹ s⁻¹
Kd [3]: 12.6 nM
koff [3]: 0.00166 s⁻¹
kon [3]: 132000 M⁻¹ s⁻¹
B4: Feline 15H05 3.2 (antibody, V domains shown)
VH: QVLLVQSGAEVRKPGASVKIFCKASGYSFTSYTIHWLRQAPEQGLEWMGNINPTSGYTENNQRFKDRLTLTADTSTNTAYMELSSLRSADTAMYYCARWGFKYDGEWSFDVWGAGTTVTVSS
VL: EITMTQSPGSLAGSPGQQVTMNCRASQGISIWLSWYQQKPGQHPKLLIYKASNLHIGVPDRFSGSGSGTDFTLTISNLQAEDVASYYCLQSQTYPLTFGGGTKLEIK
